In the domain aggregation screens of Martell et al. (2025):

Experiment: soluble fraction after stress (log2 fold change); higher = more stays soluble; pooled small domains, quantitative proteomics
Settings: stress: 75 degC
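Further: 20 min heating vs room temperature control held 20 min.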

Row | Sequence | soluble fraction (log2)
1 | HMAISQYGSQSDEVTKIQTRLKAWGYFDGPVTAYYGSQTTEAVKKFQQKHGLSATGVADAKTLELIGLP | -0.397
2 | HMAITLEQFLSVNPHIRNNLYGNAVELVKDKDFSVLSDKLKASSKWANEPSLYKILSHYDEIIS | -0.335
3 | HMAKDSQSADVLQAIFDGSKVLNGLALDQDMRWDLINGLVMSGRLGVEAIEAEAAKLAKLVEELEFR | -0.976
4 | HMAKETLRANIKDYIQKQIASGVYRPGDRIVETQLAREMNVSQAPVREAILELVSLGLLEERPYSGHMVRQ | 0.0046
5 | HMAKIKVFELKNQINSLIKNKIESKDIIDFIETNFGVKKSHSSALEENEANFIKNYFVHADKA | -0.264
6 | HMAKIPASTVVEIDGAPVVVAVRVNARARSYRLSIPHSGGPLLTLPPHGKWAEAEAFLLRHHNWLAARLHR | -2.92
7 | HMAKQEPTDNGYDIYKVTASVLNVRNGAGTSYAVAYQLSKEDYVEVVSIDKGWAKLKDGKYVSADWITLYK | -2.53
8 | HMAKRINVKLIMELSAGGLTQNEIASSRHFSKTSVNLVLKTARELNVSAADLREMSPEEAYRLFFPEK | -1.66
9 | HMAKRKTEKTSVLEEIDGVGKARARALLARFGGLSGVKAASPEELRTVRGITPEIAENIRRYFQ | -0.0813
10 | HMAKRMRNPNGYGSIVKLSGNRRNPYMVKVNTHMDERYYPVYDILGYYPTWADASIALAKYNDDPYNVS | -0.777
11 | HMAKRQATIVYEGTNVRSGPSTSSAIVKRTGKGESYPIVSTKGDWYEIKLSNGDSAYVASWVVQTVD | -0.728
12 | HMAKRYFVTTGVRVRTKPDTANSEVLTVLDEGSEIDYKGDYNNEWVKINYNGQEAYIAKQYVRSEE | -0.382
13 | HMAKSDLNYLDFKSKLEAGEIAKASVIRNEDTFKVTLQNGEVYNVTSPDYEDFRKELLEAGVDIQVSK | 0.116
14 | HMAKSMRHLIVPSRETSLWRDKLSTNGWLSKGYGIHNLDDYRGIPLNETAPKIIEGLEITELEPIS | 0.124
15 | HMAKTALEQAQAMVAAYVAAEQQILLGKEVRMGGPGIDRWLRFEDLQEVRAGRKEWESTVTRLQNTAA | -1.27
16 | HMAKTGMDALVGRRVVLTKAIAGEGEGLVAVDGDVWRATSPAGSAIPKGTEVRITGYRSIVLEVEPI | -1.87
17 | HMAKYEVVAKDIISRIKQNEFETTLKLPTEDEMIEYYQVSRNTVRSALKLLTSQGIIFSRQGSGFYIRQRS | -1.95
18 | HMALALSGVDLNRNRLTISWQTSKGVSYRVQRSSDLQSWTDVGAERLGNGNRLSHTQALNTESAFLRVII | -0.0203
19 | HMALEGTLARVSVRIPESGVGEIIFSLGGVRRSEAARSVSGRAIPRGTEVVILSYERGIATVQPYEELLTN | -1.64
20 | HMALEVPGIAKDKIYRIFGQLYERQQKWEDAIDYYNRAVFFTLSGTDMILYQEDLSRVKQKISL | -0.283
21 | HMALKRVAPQGEDKLSAQLDGVEFDKLIPWLGMLEHDHRIAIVNLSIDRANATGLVNARVIL | 0.115
22 | HMALKSGVIAHAVDDAVMRGLNVFTVSDDGSIVSMKDNDIVLGKDGKSPYSVSEWLEELKPNVPHWFG | -0.166
23 | HMALKSYEDMVGKTGVAYTVLRPSGKVIINDELFDATARSGMIEKGNEVIIYDYKNAQLIVEK | 0.263
24 | HMALPASLSPREREIVSLISQGKTNSEIASLLYISVPTVKTHISNIFQKTGVSNRTSLLNRLRMS | -0.996
25 | HMALPHEIKQKWLEEIMTMLRSSDSVTINKVYLHFPENKSHWVDEILTDLSNTHMITRQHDFIRLKN | -0.964
26 | HMALQDKYKQLVDTATASGVANLQVREQDGVLYIDGEAPSGSVKDQLWDIYGKIDPNFLSGDVVMNINV | -0.148

Row | Sequence | soluble fraction (log2)
27 | HMALQLPFSFAKRHKVLVESAHEPVKVYHTPSTDFAVFAEVRRFLDQTFVLEEIAENRFEELLTSSFQRD | -1.1
28 | HMALSETIYRLRTEHGLSQGDLAAELDVSRQSISKWETGSSVPELDKLVAMSRLFGVSLDELVLGE | -0.85
29 | HMALSLPDDMTIVRKDGSSLEVRLKSRTVTEIHFERISDSETFQFSIDQLDETTRELVEQYPVM | -0.31
30 | HMALTAEVLRSLIKHHGLGQSIQRTAKAVGLSASTVKKYFDRIAAANLTWQEAKSRTQEELIASLQPT | -0.813
31 | HMALTARDLGLTHRQADVLHLVLQGKPVKLIARDLGLAEGTVKSHVSAVLRALNVTTRTQAIVAAGRLGLM | -2.18
32 | HMAMDITLPLAEVRRQSLEQIERQYLNELMSKHLGRINRAAEAAGITTRQLHKLLTKYSIRKEDFK | -1.25
33 | HMAMESDELETLVDQLIVDHPDEWSRFVGGDDGDRKKMQGFFTGQIMKATKGQADGRAVAQLLGQKSA | 0.0717
34 | HMAMLSKREAEILKLTAKGHSSTDIAQRLTISVNTVEFHRRRIMQKLNAANVAEAVGKAAELGLFF | -2.47
35 | HMAMSAGEVVERIREHVGHPATIKELMRVLAIPNEERYRFRRRIKQLVEAGELIRIRGNRYGLADR | -2.83
36 | HMAMTITKIEKTSQQKIYYFTDSGRVFKKMSDRSATIAVDDRVELEGGVLGSKFFVTANGSRVKVKEV | -2.9
37 | HMAMYSREKLKKLREDRGLTQYELAKIAGISVVTLNKIESSDSAKPFVKTLNKIAQALGVGIDELS | -1.77
38 | HMAMYYVIGGDGQQYGPIDEATVRGWLGEGRVSAASLSFKTGEAQWIPLRDRPELADVLATA | -0.137
39 | HMANKLSEQIYGSILKDIVNGVYAPREFISEAQIAAKYGVSKAPVKEAMHILASEGFLLSYPKRGYMVN | -0.889
40 | HMANKQLQEKLKNYISENGSLSSAAKAIGLSPATLSTYLKDKYEGNVANVETRLTEIFETVEAANNLL | -0.353
41 | HMANKTISMTTLKLVIQQLSKGISRQSISAQYHISRNTIKKYEKRIKAMDMKIEDILKLSDEEISNLLQ | -3
42 | HMANLNFDMSQIVASRYQEKAAELGVTAPSLARTDYNTQEQATYEFVAREIIADYYDDRVAPFNDLIPE | -0.191
43 | HMANNPISMIKIRQILRLHIQGRSKLQIAAQTGISRNTLKKYLKEFEASKLTYDEISELSDKDLEDLFIK | -2.86
44 | HMANTSAVIKQPGLVKLFAQHFVRNGFNAMKAAEAAGFVRPSPTFVRNLADSKPVKDAISELLGPYNDA | -0.183
45 | HMANWRVGQTINALVSDRMPSGGLLLTVGRQSFVTTRDIPVQPGARIMLEVQQVEPKLVLRLVSA | -1.8
46 | HMAPADLSPEERVVLDALALEPVHVDALAAKLGRRSEELLTSLTLMEMRGLAVAHAGSRYSRATMT | -0.14
47 | HMAPEEIPLDRVVRLVEQGRVESIVVTGERLEVTLQNGTVYGSTKENGVGFMETLDRYQVPLEQRDFSYEV | -0.148
48 | HMAPELRSDAQMRRLWALAKENGLDEVGFRAFISDATGREVESTKSLTATEAHRLIEELEAP | -0.0689
49 | HMAPEPFIVQITASSLNVRKGPGTSYAVAQTVSKGQVFTIVQQQGGWGKLKSGAGWISLKYTAR | -1.74
50 | HMAPEQWYVLTSGQLPKGPYRLRHIVAMSKGDNWLVARKGAEQWTPLRHLPEFRQAQEANEYIQAIS | -1.48
51 | HMAPFSGVEPREWDSLVERGRQSGEVHAEDVTHVLRHVELTGDVLTDVQSKMAEHGITIDDA | 0.161
52 | HMAPGASEVPDLTSLPAREALLRLTKLGLLPEMEGTGRLVRQQPAAGTRVPKGSKVHLVFEPG | 0.123

Row | Sequence | soluble fraction (log2)
53 | HMAPIEVPYNVFRQQVVEGNVESVATRADTVQGYFETPVTLPARPDAAAAEPVTVERFSTTLPSF | 0.27
54 | HMAPKRIVLRFGKDISDKPIIYYLVKDYDLVINILKANVNPNKEGTLVLELSGENYDKGIEFLISQGVTVQ | -1.8
55 | HMAPKVHLLKVPVDKIREIIGTGGKVIRQITEETGAKIDISDDGSVKVSSPDQSSIDAATTWITGIIAE | -0.0092
56 | HMAPLATLEAGEDGSVKLPNLAGHSIREVAAALGGAKLSLIPIGSGTSWKQTPAPGAVLHSGDTVTVYF | 0.243
57 | HMAPNDELTRQVISVLSGTPQQAFNYKQISKKLNINDSSERRMVSNILRELAGKGEIVEVYQGKYRSKAPA | -0.0901
58 | HMAPPTAEFFAHLPAEALSAVRRSVEEGNARGIDEAILRVETLDGEAGRVLRGLAARYEYGRILELTQR | 0.103
59 | HMAPQSAAAILRYLSSGAIRGVGPATAQRIVERFGTDSLEIIQNRPKELAAINGISINKALSISEEYAKQY | -0.741
60 | HMAPREELIAIHEALDKLEREDPQVSQLVKLRYFVGMTMAEAADAMDLKKRAAEALWTYGKAWLHREIKKN | -3.24
61 | HMAPRIVTIQIPVDKIRDVIGPGGKVIRSIIERTGVKIDVEDDGRVNVASADGDSAQRAIAIIQELTAT | -0.101
62 | HMAPSIPSGADIRAAREAAGINLRDFARIVDGPGIAIWSRYETGTPIRVKSISPEVWQKVRDFISQHG | -0.801
63 | HMAPTADSVPFVIRSVVGGAQPFIVLEDGSKLLVGGVYRKYRLVAVENTRIIFEGPRTAIVT | -1.51
64 | HMAPTPAGNLRSLKSEIVNYTRQSSTAYVYTFKDLSSGELYTARASRYYAAAGDTAYISTAAGAITDM | 0.121
65 | HMAPTVPEVVRLEEGAARSAIEAAGLSVGSVEFRASSDPAGTVLATRPIAGRKVRPSSAVDLVLSDGRTP | 0.166
66 | HMAPVEEWAKASVMEDPTLVTETMARIFAQQGQIGKARKAYRHLALTYPAKSTYFAAQLKKLNQR | -0.473
67 | HMAPVLTATVNTTSGKLNMRAAASATSAKLTSIPRGATVTVLEKGTTWSRISYGGYTGYVMTQYLKFD | -0.523
68 | HMAPVVELEDVTIVRGKATLLDRVNWVIDETDRWVIVGPNGAGKTTLLQVVSANLHPTSGKAMILDEVL | 0.176
69 | HMAQILEPSVALKKLLELKQAGFEDETLVGWIRKVEFTRPLTPDDLLEWKGAGISQAVIRAAM | -0.302
70 | HMAQISDEGLLRGLIVEMFEANPAVVEELLGGRDRKKGFVIGQIMKKTKGMANPALLDQLFYEELEKL | -1.1
71 | HMAQTEIPYSEFLREVGNGQIKSVIIEGSEITGFYKTSGTSFNVVAPDDPKLVERLMDQGVEVRAQPT | 0.176
72 | HMAQVVMPNVVGKTEKDATATLEGKNLKVNVEYNLDATSDDGIVKEQSIKSGENIDEGTEITLKVNKV | -2.27
73 | HMAQWGFNGSEAGDLSFQQGDVIEVVEKVKDDWWRGRVLGSTEIGLFPS | -0.309
74 | HMARDDVIRLVQLSLDHLPAKYADALEWKYVEGLSTKEIAARLELGSEAAESLLARARRAFKNDFQEIFES | -1.42
75 | HMAREFPGTIIKRGSRGPDVRWIQQHIGVKLVDGVFGRGTERAVKQFQSRRRLKADGIVGRQTWAAIHN | -1.16
76 | HMARGATELPYSQLLDRVEAGEITTATTQGNTLLSTARDGKRYITYLPLDTMDEVVPRLDAANVEVKTER | 0.103
77 | HMARGLRPVPSVFGLDVRQATRTLYAAGFQVSIARGSDVRTRPAAGTLLRVGSTVQLEMPRMESA | -2.2
